Patent publication US9885713B2, “Diagnosis and treatment of mycobacteria infections” (priority 2013, dated 2018)
Entries after “also recorded” stand apart in the source; their conditions may differ.

How the values were obtained:
[1] = tested on: Mycobacterium avium subsp. paratuberculosis ATCC 19851; experiment: Cell binding assay: protein immobilized on gold surface, capture by SEM and fluorescence microscopy; settings: for capture/binding of MAP cells (in words): protein immobilized on gold surface, 20 μg/ml (Gp6 also 40 μg/ml)
Description: (§1) In order to assess mycophage and mycophage RBPs for their use as probes of MAP infection, Gp-10 and Gp-6 were immobilized using an established protocol (Singh et. al. Biosens. Bioelect. 26 131 (2010) and used for the specific bacterial capture. Gold Surfaces were modified by cysteamine hydrochloride followed by activation using 2% gluteraldehyde. The recombinant proteins Gp-10, Gp-6 and Gp-31 were immobilized over the surfaces in order to capture the host bacteria Mycobacterium avium subsp. paratuberculosis ATCC 19851 and Mycobacterium smegmatis mc^2155. Bacterial capture was confirmed by fluorescence microscopy and Scanning Electron Microscopy (SEM). Nonspecific attachment was prevented by using bovine serum albumin (BSA) as the blocking layer. A negative control was run in parallel where a similar gold surface was treated with all reagents, but they were not exposed to the recombinant phage proteins.
(§2) Proteins were immobilized onto cysteamine covered gold surfaces that were activated with glutaraldehyde according to the previously described protocol where RBP samples were used instead of whole phage particles. Briefly, the gold substrates were fabricated using piranha cleaned silicon substrates by sputtering a 25 nm thick gold layer. The gold substrates were sonicated in acetone, isopropanol, ethanol and MilliQ (Millipore) water for 5 min each prior to their use (Branson Ultrasonics 1510, 40 kHz frequency). The gold substrates were incubated overnight at 40° C. in a 50 mM solution of cysteamine hydrochloride (Sigma-Aldrich). The cysteamine self assembled monolayer (SAM) substrates were modified by 2% glutaraldehyde (Sigma-Aldrich) for 1 hr at room temperature and washed twice in PBS. These modified substrates were incubated in a 20 μg/ml solution of Gp10 (or Gp6) in PBS overnight at 60° C. The negative control substrate was incubated in PBS only. To block nonspecific binding of bacteria, the substrates were incubated in 1 mg/ml of bovine serum albumin (Sigma-Aldrich) and were washed twice in PBS. The protein covered substrates were exposed to 10^9 cfu/ml of mycobacterial cells in PBS for 1 hr at room temperature. The immobilized surfaces were washed in 0.05 Tween 20 (Sigma-Aldrich) before analysis. For fluorescence microscopy, the bacterial cells were stained with 50 μM resazurin (Sigma-Aldrich) for 20 min before exposure to the substrates covered with the immobilized proteins.
(§3) Bacterial cell binding to the gold surface covered with the immobilized protein was assessed as described previously. Scanning electron microscopy (SEM) and fluorescent microscopy (FM) were used to estimate the number of bacterial cells bound to the surfaces. The samples were fixed with 2% glutaraldehyde for 2 hrs at room temperature followed by a gradient of ethanol from 50% to 100% before SEM. Finally the samples were dried by nitrogen gas. SEM imaging was performed using a Hitachi S-4800/LEO 1430 microscope. Cells were prestained using 50 μM of resazurin stain (Sigma-Aldrich) for the FM-based binding assay. An Olympus IX81 microscope equipped with a FITC filter and a Roper Scientific Cool-Snaps HQ CCD Camera were Used to Record the FM Images. ImageJ Software (USA NIH) was used to analyze the microscopy images. Average numbers of cells bound to the surface are indicated on the basis of the assessment of the cell number, fields of view, and using 8 gold covered chips per test.

[2] = tested on: Mycobacterium smegmatis mc^2155; experiment: as above; settings: for capture/binding of M. smegmatis cells (in words): protein immobilized on gold surface, 20 μg/ml; for Capture efficiency of M. smegmatis cells: 20 μg/ml protein solution used for immobilization onto gold chip; for bacterial capture: gold surface, 20 μg/ml of RBP, Mycobacterium smegmatis mc^2155
Description: as §1, §2, §3

M. marinum cells = experiment: as above; set-up: species or system Mycobacterium marinum
Description: (§4) Mycobacteria phage L5 (HER-386) was obtained from the Felix D'Herelle Reference Centre for Bacterial Viruses (Laval University, Quebec, Canada). Mycobacterium marinum ATCC number 927, M. smegmatis mc^2 155 and M. avium subsp. paratuberculosis ATCC 19851 were used in the binding studies along with Campylobacter jejuni NCTC 11168H, Salmonella enterica subsp. enterica sv. Typhimurium ATCC 19585 and E. coli K-12. E. coli DH5α (Invitrogen) and E. coli BL21(DE3) (Invitrogen) were used for cloning and recombinant protein expression procedures, respectively. All mycobacterial strains were grown in ambient atmosphere. Middlebrook 7H9 (BD Biosciences) broth supplemented with oleic acid-albumin-dextrose catalase (BD Biosciences) and mycobactin J (Allied Monitor Inc.) was used to propagate M. smegmatis at 37° C. for 48 hrs as well as MAP cells at 37° C. for 10 days. […]
(§5) Proteins were immobilized onto cysteamine covered gold surfaces that were activated with glutaraldehyde according to the previously described protocol where RBP samples were used instead of whole phage particles. […] For fluorescence microscopy, the bacterial cells were stained with 50 μM resazurin (Sigma-Aldrich) for 20 min before exposure to the substrates covered with the immobilized proteins.
(§6) Bacterial cell binding to the gold surface covered with the immobilized protein was assessed as described previously. […]

E. coli = experiment: Specificity control on protein covered gold surfaces (non-host bacteria); assay type: binding, Escherichia coli; settings: E. coli K12; protein covered gold surface
Description: (§7) The concentrations of the two RBPs of Gp6, Gp-10 and Gp31 were optimized for immobilization. […] The specificity of recognition by the RBPs was confirmed by exposing similar surfaces to E. coli EC12 and Campylobacter jejuni 11168H strains of non-host bacteria.
as §2, with “These modified substrates were incubated in a 20 μg/ml solution of Gp10 (or Gp6) in PBS overnight at 60° C. The negative control substrate was incubated in PBS only. To block nonspecific binding of bacteria, the substrates were incubated in 1 mg/ml of bovine serum albumin (Sigma-Aldrich) and were washed twice in PBS. The protein covered substrates were exposed to 10^9 cfu/ml of mycobacterial cells in PBS for 1 hr at room temperature. The immobilized surfaces were washed in 0.05 Tween 20 (Sigma-Aldrich) before analysis.” left out
as §6

[3] = target: T1, peptidoglycan from Bacillus subtilis (Mycobacterium phage L5, UniProt Q05285, I224V/T32I); experiment: Peptidoglycan binding assay
T1 construct: pET-30a(+) vector-encoded N-terminal leader (additional residues up to the EcoRI site) (N); made in house; host or cells: E. coli BL21(DE3)
T1 sequence (Q05285 other isoform, or with tags, fused parts or gaps T32I/I224V): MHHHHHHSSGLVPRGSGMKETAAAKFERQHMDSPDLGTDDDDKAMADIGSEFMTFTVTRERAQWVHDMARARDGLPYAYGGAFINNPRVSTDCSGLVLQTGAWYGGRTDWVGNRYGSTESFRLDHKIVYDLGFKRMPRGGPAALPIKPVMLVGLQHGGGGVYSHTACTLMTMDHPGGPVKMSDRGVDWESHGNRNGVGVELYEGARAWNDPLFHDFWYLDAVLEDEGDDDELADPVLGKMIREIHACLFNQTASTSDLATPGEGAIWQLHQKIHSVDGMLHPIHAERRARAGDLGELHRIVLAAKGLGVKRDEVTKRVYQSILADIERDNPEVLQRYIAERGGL
Method: Dehydrated peptidoglycan from Bacillus subtilis (Sigma-Aldrich) was suspended in water to obtain a 10 mg/ml stock that was stored at −20° C. This stock was diluted further in water to obtain a 1 mg/ml working stock solution that was used in the experiments and was prepared fresh each time. A 0.1 mg/ml sample of Gp10 in PBS was incubated with peptidoglycan at a final concentration of 0.1 mg/ml for 30 min at room temperature with occasional stirring. Then, the peptidoglycan was separated from the protein solution by centrifugation (15 min at 18 000 g at 4° C.), an aliquot of the supernatant was mixed with the SDS-sample buffer and analyzed by SDS-PAGE.

[4] = tested on: Campylobacter jejuni 11168H; experiment: Specificity control on protein covered gold surfaces (non-host bacteria); assay type: binding; settings: C. jejuni; protein covered gold surface
Description: as §7
as §2, with “These modified substrates were incubated in a 20 μg/ml solution of Gp10 (or Gp6) in PBS overnight at 60° C. The negative control substrate was incubated in PBS only. To block nonspecific binding of bacteria, the substrates were incubated in 1 mg/ml of bovine serum albumin (Sigma-Aldrich) and were washed twice in PBS. The protein covered substrates were exposed to 10^9 cfu/ml of mycobacterial cells in PBS for 1 hr at room temperature. The immobilized surfaces were washed in 0.05 Tween 20 (Sigma-Aldrich) before analysis.” left out
as §6

S. Typhimurium = experiment: as above; assay type: binding, Salmonella enterica subsp. enterica sv. Typhimurium; settings: protein covered gold surface
Description: as §4, §5, §6

B1: Gp-31: recombinant His-tagged Gp-31 protein of mycobacteriophage L5 (SEQ ID NO: 5) (protein)
chain: MHHHHHHSSGLVPRGSGMKETAAAKFERQHMDSPDLGTDDDDKAMADIGSEFVTYPTNPLEAIGADGAFEIGGGDWSFGQDYTEQAIRALFTMPAVTMENALGLLEEHLLKLPLEALQGFKDMIPDWVEGAFDTVTGAVQAIMNALQDGPLFLKFAEFQLFLQRLLNNPAEVIGEIPQTLIDGLQDALNTVNNTIQTIVDMLLQALGITPEGELIDRIFDLSDEMEWLQTAASNAATGIQDTWNKFWGALTGRVPDQDQTVAEPAERIGELAGTTSANSSAIAELQRRLDNQQNAGGVAGGDDFERLNISGWDIRYSNGSSGRGYYRADGHQLVWMDEGNQQNTATFVRTNPADEKTATDYQKMTLVVGTISGEVQTVFPPQGGSHTRLWVRVNDNAPTVGITDGVFVEIGGVSKAQIGYRRNGNDTFVGSMVDCTWGAGSIFALTAGTANGAEKFEVSKNGPVLATWSDDGVVSAMGANYRRWGWEGQARNRNLGQGTPNSVTRVTITDNDPTGAGGGAVNVGGDVVGVLPIENGGTGASTASAARTALGIDDLVEDMSDVVRGSVEGLPLIPKIWVGTEAQYTALATKDQSTLYFRTA
modifications: His tag
capture/binding of MAP cells (in words) [1]: no significant bacterial capture
capture/binding of M. smegmatis cells (in words) [2]: no significant bacterial capture

B2: Gp10: recombinant His-tagged lysin Gp10 of mycobacteriophage L5 (SEQ ID NO: 3) (protein)
chain: MHHHHHHSSGLVPRGSGMKETAAAKFERQHMDSPDLGTDDDDKAMADIGSEFMTFTVTRERAQWVHDMARARDGLPYAYGGAFTNNPRVSTDCSGLVLQTGAWYGGRTDWVGNRYGSTESFRLDHKIVYDLGFKRMPRGGPAALPIKPVMLVGLQHGGGGVYSHTACTLMTMDHPGGPVKMSDRGVDWESHGNRNGVGVELYEGARAWNDPLFHDFWYLDAVLEDEGDDDELADPVLGKMIREIHACLFNQTASTSDLATPGEGAIWQLHQKIHSIDGMLHPIHAERRARAGDLGELHRIVLAAKGLGVKRDEVTKRVYQSILADIERDNPEVLQRYIAERGGL
modifications: His6 tag
capture of M. marinum cells (in words) (M. marinum cells): Neither of the two proteins was able to capture; also recorded: Neither Gp6 nor Gp10 was able to serve as a capturing agent
bacterial capture of non-host bacteria (in words) (E. coli): no bacterial capture
peptidoglycan binding (in words) ([3]; Gp10 purified from the soluble fraction, 0.1 mg/ml Gp10, 0.1 mg/ml peptidoglycan, 30 min, SDS-PAGE of supernatant): selectively remove recombinant Gp10 from the solution
peptidoglycan binding (in words) ([3]; refolded sample of Gp10 after 8 M urea extraction): retained the ability to bind peptidoglycan
bacterial capture of non-host bacteria (in words) [4]: no bacterial capture
bacterial capture ([1]; gold surface, 20 μg/ml of RBP, MAP ATCC 19851): 12.3×10^−3 /μm^2
capture/binding of MAP cells (in words) [1]: able to bind; also recorded: specifically bind
Capture efficiency of M. smegmatis cells [2]: 28.7±1.18×10^−3 cells/μm^2
bacterial capture [2]: 28.7×10^−3 /μm^2
capture/binding of M. smegmatis cells (in words) [2]: able to bind; also recorded: specifically bind
bacterial capture of non-host bacteria (in words) (S. Typhimurium): no bacterial capture

B3: Gp6: recombinant His-tagged minor tail protein Gp6 of mycobacteriophage L5 (SEQ ID NO: 1) (protein)
chain: MHHHHHHSSGLVPRGSGMKETAAAKFERQHMDSPDLGTDDDDKAMADIGSEFMADLGNPLDLEMLCLVTGRDFRWTIDYPWGPGELFLELETGGEHNALHQVYVTGATGGTYTLNVNGTNTPAIDYNDVSENPQGLAGDIQDALDAAVGAGNAVVHPVSLFPAWTLNFNLNASKPLTEQLVNTINKAANDFFDTFDQLLGVDVEMTVTDTLNFKLKVTSRRSFDEVGVVTFAVDVTSQAVINFFNSVAELTGAVNTVNVDFYWNRTYDIEFTGSLGLQPIPATTADITNLAGTSKAVSVTVVEPGKKRLTIWPFTVNGETATIKVESEEADKIPNRCRWQLVHMPTGEAAGGDAKQLGRVYRQPR
modifications: His6 tag
capture of M. marinum cells (in words) (M. marinum cells): Neither of the two proteins was able to capture; also recorded: Neither Gp6 nor Gp10 was able to serve as a capturing agent
bacterial capture of non-host bacteria (in words) (E. coli): no bacterial capture
bacterial capture of non-host bacteria (in words) [4]: no bacterial capture
capture/binding of MAP cells (in words) ([1]; listed as Gp 6): did not capture any MAP cells
capture/binding of MAP cells (in words) ([1]; listed as Gp-6): not showing any bacterial capture
Capture efficiency of M. smegmatis cells [2]: 31.3±1.5×10^−3 cells/μm^2
bacterial capture [2]: 31.3×10^−3 /μm^2
capture/binding of M. smegmatis cells (in words) [2]: M. smegmatis specific; also recorded: bind only M. smegmatis cells
bacterial capture of non-host bacteria (in words) (S. Typhimurium): no bacterial capture
